Source: article PMC2610489 (Developmental cell, 2008)

Biological target: T1, Homothorax (Hth) (Drosophila, UniProt O46339 1-487)
T1 sequence (looked up): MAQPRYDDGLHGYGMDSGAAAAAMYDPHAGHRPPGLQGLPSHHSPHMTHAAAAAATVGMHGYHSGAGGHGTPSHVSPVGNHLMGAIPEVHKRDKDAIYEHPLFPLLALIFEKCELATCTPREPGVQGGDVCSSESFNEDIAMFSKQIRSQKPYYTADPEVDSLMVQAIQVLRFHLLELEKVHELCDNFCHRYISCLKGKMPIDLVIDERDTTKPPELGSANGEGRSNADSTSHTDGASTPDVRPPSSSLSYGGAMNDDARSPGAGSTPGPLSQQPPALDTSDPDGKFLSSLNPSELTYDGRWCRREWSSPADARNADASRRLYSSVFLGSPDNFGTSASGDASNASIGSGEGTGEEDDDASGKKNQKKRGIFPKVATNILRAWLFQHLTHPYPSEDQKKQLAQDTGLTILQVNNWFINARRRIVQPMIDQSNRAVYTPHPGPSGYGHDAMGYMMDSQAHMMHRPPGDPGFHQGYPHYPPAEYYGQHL
Experiment: native gel or EMSA

- binding result: binds
B1: Extradenticle (Exd) (natural protein, Drosophila, UniProt P40427 1-376, looked up)
chain: MEDPNRMLAHTGGMMAPQGYGLSGQDDGQNAGSENEVRKQKDIGEILQQIMSISEQSLDEAQARKHTLNCHRMKPALFSVLCEIKEKTVLSIRNTQEEEPPDPQLMRLDNMLIAEGVAGPEKGGGGAAAASAAAASQGGSLSIDGADNAIEHSDYRAKLAQIRQIYHQELEKYEQACNEFTTHVMNLLREQSRTRPITPKEIERMVQIIHKKFSSIQMQLKQSTCEAVMILRSRFLDARRKRRNFSKQASEILNEYFYSHLSNPYPSEEAKEELARKCGITVSQVSNWFGNKRIRYKKNIGKAQEEANLYAAKKAAGASPYSMAGPPSGTTTPMMSPAPPQDSMGYPMGSGGYDQQQPYDNSMGGYDPNLHQDLSP
